In IntAct's records for PubMed 17875931:

Target: itf2_human TCF4 (UniProt P15884)
Sequence (P15884 whole entry): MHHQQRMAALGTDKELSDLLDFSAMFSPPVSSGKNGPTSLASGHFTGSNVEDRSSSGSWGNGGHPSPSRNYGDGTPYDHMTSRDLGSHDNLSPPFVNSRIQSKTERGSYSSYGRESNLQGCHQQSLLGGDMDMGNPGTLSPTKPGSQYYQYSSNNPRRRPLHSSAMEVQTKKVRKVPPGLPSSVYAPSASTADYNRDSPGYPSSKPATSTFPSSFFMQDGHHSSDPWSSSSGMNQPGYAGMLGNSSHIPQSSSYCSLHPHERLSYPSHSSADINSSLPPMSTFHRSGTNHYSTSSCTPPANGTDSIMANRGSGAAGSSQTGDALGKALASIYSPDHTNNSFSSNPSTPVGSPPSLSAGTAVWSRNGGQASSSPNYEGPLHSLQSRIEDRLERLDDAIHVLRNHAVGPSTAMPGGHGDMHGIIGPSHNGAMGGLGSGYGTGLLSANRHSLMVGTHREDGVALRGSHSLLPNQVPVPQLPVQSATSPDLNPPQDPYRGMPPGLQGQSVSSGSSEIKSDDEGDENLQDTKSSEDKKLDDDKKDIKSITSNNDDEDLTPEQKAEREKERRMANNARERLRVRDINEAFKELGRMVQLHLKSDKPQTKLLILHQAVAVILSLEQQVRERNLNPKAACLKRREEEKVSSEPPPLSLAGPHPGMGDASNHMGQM

Sequence of Transcription factor SOX-17 (Mus musculus), Q61473 G103R (Q61473 whole entry G103R): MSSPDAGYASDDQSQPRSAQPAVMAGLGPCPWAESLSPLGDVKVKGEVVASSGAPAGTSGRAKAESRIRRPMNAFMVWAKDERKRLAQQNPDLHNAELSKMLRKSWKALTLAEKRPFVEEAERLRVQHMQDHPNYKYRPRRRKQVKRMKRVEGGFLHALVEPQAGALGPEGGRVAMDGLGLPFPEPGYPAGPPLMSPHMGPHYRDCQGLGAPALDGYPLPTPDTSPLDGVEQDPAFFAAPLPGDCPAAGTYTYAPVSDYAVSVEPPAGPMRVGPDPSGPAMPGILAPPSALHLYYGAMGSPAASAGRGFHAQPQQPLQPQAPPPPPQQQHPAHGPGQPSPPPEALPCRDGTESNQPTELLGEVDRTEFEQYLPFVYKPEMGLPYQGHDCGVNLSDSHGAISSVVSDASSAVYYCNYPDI

- effect of a mutation on the interaction: disrupting interaction
Substance: Transcription factor SOX-17 (Mus musculus), Q61473 G103R
